Measured values: patent publication US20230250147A1, “GLP-1R AGONISTIC PEPTIDES WITH REDUCED ACTIVITY” (SANOFI, priority 2020, published 2023)
Marks after values point to notes of the source that are not given here. Each block holds one molecule with its values, some of them ahead of it. No end group written: not given here.

Columns and labels:
Human GLP-1R = target: T1, Human GLP-1R (Homo sapiens, UniProt P43220); experiment: HTRF cAMP assay in HEK-293 cells, human GLP-1R; type: cell-based
T1 construct: expressed in transfected cells; host or cells: HEK-293
T1 sequence (P43220 24-463): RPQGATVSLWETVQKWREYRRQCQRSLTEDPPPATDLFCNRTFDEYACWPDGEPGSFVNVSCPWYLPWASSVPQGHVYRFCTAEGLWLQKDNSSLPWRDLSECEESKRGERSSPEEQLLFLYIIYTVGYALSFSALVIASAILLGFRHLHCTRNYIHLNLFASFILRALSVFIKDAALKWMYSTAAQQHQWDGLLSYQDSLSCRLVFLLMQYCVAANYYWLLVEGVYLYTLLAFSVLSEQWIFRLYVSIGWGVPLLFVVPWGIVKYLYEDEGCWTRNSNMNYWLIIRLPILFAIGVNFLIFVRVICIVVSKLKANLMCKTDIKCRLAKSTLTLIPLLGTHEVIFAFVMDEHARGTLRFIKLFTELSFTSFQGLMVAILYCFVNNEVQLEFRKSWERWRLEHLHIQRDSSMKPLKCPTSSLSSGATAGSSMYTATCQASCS
Description: (§1) Recombinant HEK-293 cells were grown in T175 culture flasks placed at 37° C. to near confluence in medium (DMEM with 10% FBS) and collected in 2 mL vials in cell culture medium containing 10% DMSO in concentrations of 1-5×10^7 cells/mL. Each vial contained 1.8 mL cell suspension. The vials were slowly frozen to −80° C. in an isopropanol chamber, and then transferred to liquid nitrogen for long term storage.
(§2) Prior to their use, frozen cells were thawed quickly at 37° C., washed with 20 mL cell buffer (1×HBSS; 20 mM HEPES, 0.1% BSA) and centrifuged for 5 minutes at 900 rpm. Cells were resuspended in assay buffer (cell buffer plus 2 mM IBMX) and adjusted to a cell density of 1×10^6 cells/mL. For measurement, 5 μL cell suspension (final 5×10^3 cells/well) and 5 μL of test compound were added to a well of a 384-well plate, followed by incubation for 30 minutes at room temperature. […] The cAMP content of cells was determined using a kit from Cisbio Corp. (cat. no. 62AM4PEC) based on Homogenous Time Resolved Fluorescence (HTRF).

Mouse GLP-1R = target: T2, Mouse GLP-1R (Mus musculus, UniProt O35659); experiment: HTRF cAMP assay in HEK-293 cells, mouse GLP-1R; type: cell-based
T2 construct: expressed in transfected cells; host or cells: HEK-293
T2 sequence (O35659 22-463): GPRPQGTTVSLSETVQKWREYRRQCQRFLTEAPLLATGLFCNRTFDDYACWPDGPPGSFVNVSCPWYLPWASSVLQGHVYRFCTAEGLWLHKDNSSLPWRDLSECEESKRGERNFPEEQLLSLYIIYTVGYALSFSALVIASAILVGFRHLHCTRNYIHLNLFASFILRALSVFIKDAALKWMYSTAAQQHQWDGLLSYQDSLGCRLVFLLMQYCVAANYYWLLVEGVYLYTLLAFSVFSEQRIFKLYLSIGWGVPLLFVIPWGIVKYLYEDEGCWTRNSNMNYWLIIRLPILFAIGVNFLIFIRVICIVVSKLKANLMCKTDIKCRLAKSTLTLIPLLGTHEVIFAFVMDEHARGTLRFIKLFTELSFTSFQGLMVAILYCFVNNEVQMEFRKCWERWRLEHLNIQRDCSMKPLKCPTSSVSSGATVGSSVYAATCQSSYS
Description: as §1, §2

Monkey GLP-1R = target: T3, Monkey GLP-1R (Macaca fascicularis, UniProt F8V479); experiment: HTRF cAMP assay in HEK-293 cells, monkey GLP-1R; type: cell-based
T3 construct: expressed in transfected cells; host or cells: HEK-293
T3 sequence (F8V479 24-463): as the sequence (P43220 24-463) above, with S112N, F120S, S202G, L205V, L237F, W241R, I249V counted along it
Description: as §1, §2

[1] = target: T4, human FGFR1c together with human beta-Klotho (KLB) (human, UniProt P11362 22-822; Q86Z14 1-1044); experiment: cell-based or functional assay
T4 sequence (P11362 22-822, chain 1 of 2): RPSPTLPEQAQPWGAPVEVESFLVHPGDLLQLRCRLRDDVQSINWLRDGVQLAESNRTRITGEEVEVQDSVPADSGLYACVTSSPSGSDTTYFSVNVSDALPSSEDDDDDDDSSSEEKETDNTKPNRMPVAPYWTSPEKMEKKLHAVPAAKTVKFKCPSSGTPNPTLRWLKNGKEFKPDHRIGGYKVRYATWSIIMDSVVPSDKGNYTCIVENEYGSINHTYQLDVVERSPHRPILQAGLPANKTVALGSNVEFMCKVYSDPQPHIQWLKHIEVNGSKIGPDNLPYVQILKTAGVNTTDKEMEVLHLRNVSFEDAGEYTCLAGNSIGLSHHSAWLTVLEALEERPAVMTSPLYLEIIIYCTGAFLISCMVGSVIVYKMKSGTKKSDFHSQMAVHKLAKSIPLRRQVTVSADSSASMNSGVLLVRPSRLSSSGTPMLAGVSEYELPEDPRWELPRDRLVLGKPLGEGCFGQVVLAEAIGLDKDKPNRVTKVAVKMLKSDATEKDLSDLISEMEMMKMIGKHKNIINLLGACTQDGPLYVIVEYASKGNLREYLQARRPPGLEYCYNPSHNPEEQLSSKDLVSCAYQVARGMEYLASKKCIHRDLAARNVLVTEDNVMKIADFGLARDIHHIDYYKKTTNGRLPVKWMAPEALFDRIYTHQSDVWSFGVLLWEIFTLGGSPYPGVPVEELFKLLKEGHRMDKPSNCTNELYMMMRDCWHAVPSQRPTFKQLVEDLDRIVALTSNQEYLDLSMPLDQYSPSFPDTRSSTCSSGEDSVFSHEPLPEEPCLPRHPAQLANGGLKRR
T4 sequence (Q86Z14 whole entry, chain 2 of 2): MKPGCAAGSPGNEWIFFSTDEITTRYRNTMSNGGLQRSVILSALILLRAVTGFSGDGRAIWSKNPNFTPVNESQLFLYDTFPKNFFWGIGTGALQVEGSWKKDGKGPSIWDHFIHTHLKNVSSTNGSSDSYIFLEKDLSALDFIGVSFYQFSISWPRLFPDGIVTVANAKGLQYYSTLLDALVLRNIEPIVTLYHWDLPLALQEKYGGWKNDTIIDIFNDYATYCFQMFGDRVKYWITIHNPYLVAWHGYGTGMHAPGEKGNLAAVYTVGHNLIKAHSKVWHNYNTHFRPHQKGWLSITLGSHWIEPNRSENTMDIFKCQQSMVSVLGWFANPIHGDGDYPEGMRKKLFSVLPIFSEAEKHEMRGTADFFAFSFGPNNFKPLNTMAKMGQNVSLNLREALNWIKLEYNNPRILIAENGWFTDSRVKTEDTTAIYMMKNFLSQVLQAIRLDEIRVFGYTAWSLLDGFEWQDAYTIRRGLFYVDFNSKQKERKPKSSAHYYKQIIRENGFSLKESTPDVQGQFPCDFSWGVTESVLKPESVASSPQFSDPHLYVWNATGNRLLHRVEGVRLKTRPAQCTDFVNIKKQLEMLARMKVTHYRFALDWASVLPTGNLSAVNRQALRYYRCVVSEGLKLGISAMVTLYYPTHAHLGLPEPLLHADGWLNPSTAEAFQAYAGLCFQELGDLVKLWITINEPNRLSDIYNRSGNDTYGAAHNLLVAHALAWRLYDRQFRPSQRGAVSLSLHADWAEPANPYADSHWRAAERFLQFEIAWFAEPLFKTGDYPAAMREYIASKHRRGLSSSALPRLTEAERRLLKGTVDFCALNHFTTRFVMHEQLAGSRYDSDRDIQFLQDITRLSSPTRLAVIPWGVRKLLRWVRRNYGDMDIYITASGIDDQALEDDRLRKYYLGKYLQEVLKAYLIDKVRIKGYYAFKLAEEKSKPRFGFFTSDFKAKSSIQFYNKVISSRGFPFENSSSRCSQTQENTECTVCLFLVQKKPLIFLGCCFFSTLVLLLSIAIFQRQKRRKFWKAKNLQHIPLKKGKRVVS

[2] = target: T4, human FGFR1c together with human …; experiment: cell-based or functional assay; remark: listed apart in the source
[3] = Thermal shift assay (DSF, Sypro Orange); type: physicochemical; conditions: Data generated via DSF
Excerpt: In addition, for some proteins a thermal shift assay was applied to analyze thermostability in imitation of differential scanning fluorimetry (DSF or ThermoFluor™) assays (Ahmad S. et al. (2012) Protein Science 21: 433-446; Pantoliano et al. (2001) J. Biomol. Screen 6: 429-440; Niesen et al. (2007) Nat. Protoc. 2: 2212-21). This assay is based on the observation that hydrophobic fluorescent dyes, such as Sypro™ Orange (Life Technologies, cat. No. S6651), increase their fluorescence when they bind to hydrophobic patches on a protein.
Proteins were tested by mixing a solution of each protein in PBS (Gibco) with a 160× solution of Sypro™Orange (diluted in water from a 5000×DMSO stock as provided by the supplier). The sample volume was adjusted to 20 μL with PBS. Typical conditions contained 0.8 mg/mL protein and 8× Sypro™Orange in the final mixture, but protein concentrations could be varied between 0.4 mg/mL and 1.2 mg/mL. Samples were dispensed in 96-well PCR plates (BioRad Semi-Skirt 96 white) and shortly centrifuged to remove air bubbles. […] For excitation and quantification of fluorescence, filters for wavelengths of 485 nm and 575 nm were chosen. […] In curves of fluorescence intensity against temperature, the inflection point was chosen as the measure for the melting temperature (Tm).

[4] = Pharmacokinetics after single subcutaneous administration in mouse; type: in vivo, female C57BI/6 mice; conditions: FGF21 intact assay; 0.3 mg/kg subcutaneous
Description: Plasma concentrations and pharmacokinetic parameters of GLP-1 RA/FGF21 Fc fusion proteins were determined after single subcutaneous administration of 0.3 mg/kg in solution to female C57BI/6 mice or male Cynomolgus monkeys using three different methods. Blood samples were obtained at time points from 30 minutes to 168 hours after dosing. […]
a.) Bioanalytical Screening Method for Quantification of the Intact FGF21 Part of the GLP-1 RA/FGF21 Fc Fusion Proteins Plasma samples were analyzed for the intact FGF21 part of the fusion proteins with an ELISA kit (F1231-K01, Eagle Biosciences, USA). […] For the detection of this immunocomplex, the well was then incubated with a substrate solution in a timed reaction and then measured in a spectrophotometric microplate reader. […]
b.) Bioanalytical Screening Method for Quantification of the Intact Full-Length Fusions Proteins The concentration of the full-length GLP-1RA/FGF21 Fc fusion proteins in plasma were determined utilizing an ELISA method. […] Following washing 3 times with 300 μL PBS-T 150 μL read buffer was added to the wells. […]
c.) Bioanalytical Screening Method for Quantification of the Intact GLP-1 Part of the GLP-1 FGF21 Fc Fusion Proteins Plasma samples were analyzed for the intact GLP-1 part of the fusion proteins with a GLP-1 ELISA method. […]

- EC50 (Human GLP-1R): 10.5 pM
- EC50 (Mouse GLP-1R): 7.65 pM
- EC50 (Monkey GLP-1R): 5.74 pM
Molecule: GHGEGTFTSDKSKQLEEEAVRLFIEWLKAGGPKKIRYS-NH2 [compound 278]

- pERK ICW EC50 [1]: 0.17 nmol/L
- pFGFR ICW EC50 [2]: 4.49 nmol/L
B1: G-FGF21 (mature human wild-type FGF21 with an additional N-terminal Gly) (ligand)
chain: GHPIPDSSPLLQFGGQVRQRYLYTDDAQQTEAHLEIREDGTVGGAADQSPESLLQLKALKPGVIQILGVKTSRFLCQRPDGALYGSLHFDPEACSFRELLLEDGYNVYQSEAHGLPLHLPGNKSPHRDPAPRGPARFLPLPGLPPAPPEPPGILAPQPPDVGSSDPLSMVGPSQGRSPSYAS

B2: 252 (protein)
chain: B1 chain
modifications: G-FGF21
- Tm (melting temperature) [3]: 43.1* ° C.
- t1/2 mouse [4]: 42 min
